# Ends that are not written are not given here.
# How the values were obtained:
# α-thrombin [1] = target: T1, α-thrombin (Homo sapiens, UniProt P00734); experiment: Confirmatory binding assay in column chromatographic format, peptides synthesized on A-Totda-Toyopearl; conditions: for binding of thrombin to peptide resin (in words): summary of Table 2; for dose dependence of thrombin in the acid eluant (in words): 50, 100 and 200 μg α-thrombin
# T1 construct: α-Thrombin is the active form of the plasma serine protease zymogen, prothrombin; purchased Enzyme Research Labs (South Bend, Ind.)
# Procedure: Confirmatory binding assays were performed in a column chromatographic format on a microbore HPLC using individual peptide sequences synthesized directly onto the Toyopearl 650 M Chelate resin which had been modified with Totda followed by an alanine residue (A-Totda-Toyopearl), at a final substitution density of 0.2 mmol/g resin. […] The endpoint was a dose-dependent increase in the acid eluate in the thrombin contactings, and quantification was by integration of the absorbance at 280 nm.
# α-thrombin [2] = target: T1, α-thrombin; experiment: Purification of α-thrombin from activated PTC eluate on YFPGPYL-Totda-Toyopearl; type: binding
# Procedure: Human pooled plasma was processed to PTC eluate by standard manufacturing procedures as indicated in Example 1. A sample of the PTC eluate was activated in the presence of 50 mM CaCl2 for 6 days at 4° C. Approximately 1 ml of the activated PTC eluate, spiked with 300 μg α-thrombin, was injected onto the peptide resin YFPGPYL-Totda-Toyopearl (FIG. 6). The column was washed with equilibration buffer (10 mM HEPES, pH 6.5, 10 mM CaCl2, 500 mM NaCl, 0.1% (v/v) PEG-400) until the A280 returned to base-line. […] Acid treatment (2% acetic acid) was used as a cleaning step to remove protein still bound to the column.
# [3] = 50 μg α-thrombin applied, integration of A280
# [4] = 100 μg α-thrombin applied, integration of A280
# [5] = 200 μg α-thrombin applied, integration of A280
"Absorbance, 280 nm 1M NaCl Eluate (α-thrombin [1]; [3])","Absorbance, 280 nm 2% Acetic Acid (α-thrombin [1]; [3])","Absorbance, 280 nm 1M NaCl Eluate (α-thrombin [1]; [4])","Absorbance, 280 nm 2% Acetic Acid (α-thrombin [1]; [4])","Absorbance, 280 nm 1M NaCl Eluate (α-thrombin [1]; [5])","Absorbance, 280 nm 2% Acetic Acid (α-thrombin [1]; [5])",binding of thrombin to peptide resin (in words) (α-thrombin [1]),dose dependence of thrombin in the acid eluant (in words) (α-thrombin [1]),"Absorbance, 280 nm 2% Acetic Acid (α-thrombin [1]; 50 μg α-thrombin applied in a solution containing 5 mg/ml hSA)","Absorbance, 280 nm 2% Acetic Acid (α-thrombin [1]; 100 μg α-thrombin applied in a solution containing 5 mg/ml hSA)","Absorbance, 280 nm 2% Acetic Acid (α-thrombin [1]; 200 μg α-thrombin applied in a solution containing 5 mg/ml hSA)","thrombin content of protein released by 1 mM sodium citrate pH 7.0 (α-thrombin [2]; quantitative scanning of SDS-PAGE, activated PTC eluate spiked with 300 μg α-thrombin)",binding of thrombin from activated PTC eluate (in words) (α-thrombin [2]; released by 1 mM sodium citrate pH 7.0),Substance
0.00,0.00,0.18,0.00,0.69,0.00,not,,,,,,,ERPYHG (not fully specified (C-terminus)) [peptide synthesized on A-Totda-Toyopearl resin]
0.23,0.41,0.23,0.99,0.26,2.38,bound thrombin,,,,,,,ERPYKG (not fully specified (C-terminus)) [peptide synthesized on A-Totda-Toyopearl resin]
0.00,0.15,0.00,0.29,0.10,0.45,bound thrombin,,,,,,,FEPANP (not fully specified (C-terminus)) [peptide synthesized on A-Totda-Toyopearl resin]
0.12,0.41,0.15,0.77,0.25,1.71,bound thrombin,,,,,,,GFRKGP (not fully specified (C-terminus)) [peptide synthesized on A-Totda-Toyopearl resin]
0.00,0.71,0.00,1.42,0.13,2.73,bound thrombin,,,,,,,GFRNGP [GERNGP]
np,0.58,np,0.95,np,1.76,enhanced binding,,,,,,,HQLWGSH
np,0.18,np,0.44,np,1.25,bound thrombin,,,,,,,LFAPTL
np,0.00,np,0.00,np,0.00,,,,,,,,LTPFAV (not fully specified (C-terminus)) [peptide synthesized on A-Totda-Toyopearl resin]
np,np,np,np,np,np,not,,,,,,,PFAPTL
np,0.50,np,1.05,np,1.10,bound thrombin,,,,,,,PFPYAW (not fully specified (C-terminus)) [peptide synthesized on A-Totda-Toyopearl resin]
np,0.47,np,0.79,np,1.37,bound thrombin,,,,,,,PFPYGW (not fully specified (C-terminus)) [peptide synthesized on A-Totda-Toyopearl resin]
np,2.82,np,2.14,np,3.32,bound thrombin,not in a dose dependent manner,,,,,,PFPYVW (not fully specified (C-terminus)) [peptide synthesized on A-Totda-Toyopearl resin]
np,0.75,np,1.49,np,2.83,enhanced binding,,,,,,,"RQLWQSH [RQLWGSH, variant of QLWGSH with added amino-terminal arginine, on A-Totda-Toyopearl resin]"
np,0.57,np,0.71,np,2.06,bound thrombin,,,,,,,SVRPFL (not fully specified (C-terminus)) [peptide synthesized on A-Totda-Toyopearl resin]
0.16,1.48,0.18,1.57,np,3.59,bound thrombin,,,,,,,VFPYAW (not fully specified (C-terminus)) [peptide synthesized on A-Totda-Toyopearl resin]
np,0.88,np,1.46,np,2.01,bound thrombin,,,,,,,VFPYGW (not fully specified (C-terminus)) [peptide synthesized on A-Totda-Toyopearl resin]
np,0.81,np,1.21,np,1.81,bound thrombin,,,,,,,VFPYVW (not fully specified (C-terminus)) [peptide synthesized on A-Totda-Toyopearl resin]
np,0.00,np,0.00,np,0.00,,,,,,,,VTPFAV (not fully specified (C-terminus)) [peptide synthesized on A-Totda-Toyopearl resin]
,,,,,,bound thrombin,dose dependent increase,2.10,2.93,4.72,at least 72%,thrombin bound,YFPGPYL (not fully specified (C-terminus))
np,0.16,np,0.28,np,0.34,bound thrombin,,,,,,,YTPFAV (not fully specified (C-terminus)) [peptide synthesized on A-Totda-Toyopearl resin]

# — patent publication US5831003A, “Peptides which bind to prothrombin and thrombin” (Bayer Corporation, priority 1996, dated 1998)
